In the assay the target is human TREM2 Ig domain (aa 19-134), wild type, biotinylated on a BirA tag (human) (UniProt Q9NZC2). Nature of the assay: BLI.

This passage reports Kd results from paper PMC8026773.

pKd: −log10 of the molar value.

Chain of human TREM2 Ig domain (aa 19-134), wild type, biotinylated on a BirA tag (human) (Q9NZC2 19-134): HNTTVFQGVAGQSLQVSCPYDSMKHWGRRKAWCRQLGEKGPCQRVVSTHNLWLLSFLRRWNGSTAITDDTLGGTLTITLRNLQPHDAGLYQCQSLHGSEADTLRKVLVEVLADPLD

As for “ApoE3 1-238 (C-term deletion) (domain or fragment)”, the pKd was 6.16.
